The text below walks through data of US20250066483A1.

The target in test [1] is canine PD-L1-His (canine). The experiment in a line: SPR (Biacore X100), cPD-L1-His captured by anti-histidine antibody on a CM5 chip, canine CD80-Ig as analyte.
The target of test [2] is canine PD-L1-His (canine). As to the kind of experiment: SPR (Biacore X100), cPD-L1-His captured by anti-histidine antibody on a CM5 chip, canine PD-1-Ig as analyte. Background: SPR reads the build-up and loss of mass on a sensor chip optically.

pKd: −log10 of the molar value.

With canine CD80-Ig (Fc fusion), in test [1], the pKd – broadly, −log10 of the Kd, conventionally taken in molar units – was 7.61.

canine PD-1-Ig (Fc fusion) had a pKd in test [2] of 7.60.
